Assay results taken from the supplement of paper PMC10724198.
± gives the standard deviation of the averaged measurements.

System: Saccharomyces cerevisiae
Test: protein stability index of tFT-peptide fusion (C-terminal peptide) (PSI (0-1 scale)); higher = more stable (slower turnover)
Conditions: temperature: 30 C
Method: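 MPS profiling in S. cerevisiae of the yeast C-terminome library: the last 12 aa of each annotated ORF are fused to the C-terminus of a sfGFP-mCherry timer, after a GGGS linker. Cells are FACS-sorted into 8 mCherry/sfGFP bins and deep-sequenced. PSI runs from 0 (unstable) to 1 (stable); wild type and das1Δ backgrounds, two technical replicates each.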

[1] = genetic background: das1 deletion

Sequence	protein stability index [1]	protein stability index (genetic background: wild type)
EYTDFMSWMQDN [YER186C C-terminal 12 aa]	0.74 ± 0.01	0.646 ± 0.15
AIRTRKFDNNKR [RED1 C-terminal 12 aa]	0.716 ± 0.046	0.6648 ± 0.0027
SMKYPHTAALVR [YLR111W C-terminal 12 aa]	0.578 ± 0.027	0.653 ± 0.072
PRRSDLRPEFAE [VMA9 C-terminal 12 aa]	0.672 ± 0.022	0.665 ± 0.018
TLVADQEDDVIF [VMA8 C-terminal 12 aa]	0.7039 ± 0.0067	0.715 ± 0.025
YAVFTVLFSIIF [SPS2 C-terminal 12 aa]	0.297 ± 0.013	0.295 ± 0.0078
IFSSLVHYCNAG [LST4 C-terminal 12 aa]	0.729 ± 0.013	0.73 ± 0.0085
DLESLFKEKLSI [ALA1 C-terminal 12 aa]	0.7111 ± 0.0015	0.705 ± 0.02
PPSDPSSIKIRN [KIN28 C-terminal 12 aa]	0.71109 ± 0.00022	0.729 ± 0.0076
NDINNSRPITRK [ARO80 C-terminal 12 aa]	0.682 ± 0.045	0.666 ± 0.03
EQLGHASKRHKP [RPP1 C-terminal 12 aa]	0.694 ± 0.011	0.689 ± 0.0075
IVHKSNFINNKK [OXA1 C-terminal 12 aa]	0.7224 ± 0.0042	0.6943 ± 0.0055
FAQNTNKDVELN [NGG1 C-terminal 12 aa]	0.682 ± 0.028	0.666 ± 0.046
DDEEATAMFKLE [IES1 C-terminal 12 aa]	0.715 ± 0.0089	0.6754 ± 0.0028
QKDSRGKKKIKK [YMR114C C-terminal 12 aa]	0.691 ± 0.026	0.63611 ± 0.00024
NPSILGDFTRED [RTR1 C-terminal 12 aa]	0.663 ± 0.015	0.715 ± 0.02
IIFVVLLCKKSR [ASG7 C-terminal 12 aa]	0.299 ± 0.019	0.309 ± 0.019
RKLLERSNKFHI [PET127 C-terminal 12 aa]	0.689 ± 0.009	0.746 ± 0.088
ALKHGEKAFNIN [NEM1 C-terminal 12 aa]	0.678 ± 0.017	0.6766 ± 0.0023
GTMKVDSWEPVD [ACH1 C-terminal 12 aa]	0.7 ± 0.013	0.6829 ± 0.0049
VVYRHLHTKVSK [HAL5 C-terminal 12 aa]	0.682 ± 0.0075	0.658 ± 0.0043

Sequence	protein stability index [1]	protein stability index (genetic background: wild type)
IIQQNLKKIGII [GPA1 C-terminal 12 aa]	0.696 ± 0.02	0.195 ± 0.011
KRLHQLDGIPHA [MEO1 C-terminal 12 aa]	0.703 ± 0.0079	0.6852 ± 0.0018
VHTELLIYCHDE [ASR1 C-terminal 12 aa]	0.7068 ± 0.006	0.6802 ± 0.0017
LIYLNETLGTRL [IRC19 C-terminal 12 aa]	0.705 ± 0.015	0.671 ± 0.003
KRRIEEIQMLFE [RAD5 C-terminal 12 aa]	0.7081 ± 0.0032	0.683 ± 0.036
LERILHEMHPPA [EOS1 C-terminal 12 aa]	0.714 ± 0.012	0.726 ± 0.025
IWKEVKRHQDFA [ATG20 C-terminal 12 aa]	0.7235 ± 0.0023	0.734 ± 0.0089
DEKTLDSIGNSL [VCX1 C-terminal 12 aa]	0.701 ± 0.0096	0.696 ± 0.013
NSLIFDAFNQIR [CDH1 C-terminal 12 aa]	0.732 ± 0.029	0.736 ± 0.054
PVIKKSKKCAIL [CDC42 C-terminal 12 aa]	0.757 ± 0.0059	0.6072 ± 0.0055
GRNKIYILFNVL [YMR030W-A C-terminal 12 aa]	0.6466 ± 0.0047	0.116 ± 0.0082
DWESNQAKWIYE [YNK1 C-terminal 12 aa]	0.752 ± 0.034	0.718 ± 0.029
PQENHDNKEEQS [HEK2 C-terminal 12 aa]	0.676 ± 0.019	0.688 ± 0.033
LLIQEEMKLKEV [YPK9 C-terminal 12 aa]	0.7188 ± 0.0014	0.703 ± 0.022
LRRLTSPSRTQP [BAG7 C-terminal 12 aa]	0.71894 ± 0.00039	0.705 ± 0.012
PSYAVCDNILVT [YOL013W-B C-terminal 12 aa]	0.67 ± 0.04	0.653 ± 0.017
STAVRSIDALKN [HSP31 C-terminal 12 aa]	0.701 ± 0.042	0.687 ± 0.0074
VVGRYMRSGLKK [NOP1 C-terminal 12 aa]	0.6704 ± 0.005	0.682 ± 0.028
EEEEEEGKEGDA [SCT1 C-terminal 12 aa]	0.684 ± 0.012	0.697 ± 0.0061
EKQSSTASEKAA [THI7 C-terminal 12 aa]	0.6813 ± 0.0064	0.704 ± 0.029
TVNYNDKTISGN [VPS30 C-terminal 12 aa]	0.689 ± 0.022	0.692 ± 0.055

Sequence	protein stability index [1]	protein stability index (genetic background: wild type)
KSALSKTLGLNK [NHA1 C-terminal 12 aa]	0.699 ± 0.014	0.7038 ± 0.0048
SNSSSSQKAAKE [HST2 C-terminal 12 aa]	0.71 ± 0.033	0.651 ± 0.024
QCPVCRSPLPPL [TUL1 C-terminal 12 aa]	0.714 ± 0.023	0.742 ± 0.013
KELEFGLDRKYF [SLT2 C-terminal 12 aa]	0.6989 ± 0.0057	0.68 ± 0.04
SELENKFSNQES [FPY1 C-terminal 12 aa]	0.7048 ± 0.0039	0.735 ± 0.053
TLISGKEDGPTI [SRY1 C-terminal 12 aa]	0.69 ± 0.028	0.701 ± 0.044
ERLRFYKDTFTL [RRI1 C-terminal 12 aa]	0.726 ± 0.0089	0.653 ± 0.011
IWKPAGNLVGHS [MSI1 C-terminal 12 aa]	0.698 ± 0.013	0.7019 ± 0.0026
LDMAVIDNTTHN [SDO1 C-terminal 12 aa]	0.712 ± 0.026	0.682 ± 0.016
IADELDWLKFGI [GLN3 C-terminal 12 aa]	0.906 ± 0.028	0.882 ± 0.019
YEIEPDFDRLAV [SVP26 C-terminal 12 aa]	0.691 ± 0.022	0.681 ± 0.021
MVKIRTKNDAKN [TAF2 C-terminal 12 aa]	0.7067 ± 0.0054	0.6135 ± 0.00067
RRKLKGRWFLSH [MRX14 C-terminal 12 aa]	0.702 ± 0.0078	0.562 ± 0.0085
DYYFRTGVKRLQ [ARP10 C-terminal 12 aa]	0.705 ± 0.028	0.732 ± 0.044
EKRLQKEIKSIE [IDP1 C-terminal 12 aa]	0.734 ± 0.012	0.673 ± 0.06
IHSTKEEKNCNH [YDR095C C-terminal 12 aa]	0.712 ± 0.017	0.683 ± 0.029
QVLGTEEPTVRT [PGM2 C-terminal 12 aa]	0.696 ± 0.046	0.6625 ± 0.0017
STGSETKIADCR [HSM3 C-terminal 12 aa]	0.683 ± 0.01	0.695 ± 0.021
NIFYQLLLTVNY [YBR013C C-terminal 12 aa]	0.229 ± 0.0065	0.272 ± 0.02
